Assay results: patent publication US20260217847A1 (NANJING REGENECORE BIOTECH, published 2026)

Experiments:
TfR1 peptide D2-loop1-K = target: T1, TfR1 peptide D2-loop1-K (human); experiment: peptide ELISA on streptavidin plate, 2 µg/mL 2H7-hFc
T1 construct: Synthetic peptide, captured on a streptavidin-coated plate; also called peptide No. 13
T1 peptide: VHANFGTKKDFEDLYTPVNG
Procedure: (§1) The peptide-antibody binding was identified using a standard enzyme-linked immunosorbent assay (ELISA). The steps were as follows: [0244] (1) The wells of an ELISA plate were coated with 100 μL of 2 μg/mL SA (streptavidin) protein at 4° C. overnight. […] (2) The wells of the ELISA plate were washed with PBST buffer. After adding 200 μL of 2% BSA, the plate was blocked at 37° C. for 1 h. […] (3) The peptide protein was diluted to 2 μg/mL, and a negative control and a positive control (AVI-tagged TfR1 protein) were included. Each experiment contained duplicate controls. […] (4) The wells of the ELISA plate were washed multiple times with PBST buffer. Then, 100 μL of the diluted peptide protein solution from step (3) was added into wells in duplicate, and along with the negative control wells, incubated at 37° C. for 1 h. [0248] (5) The wells of the ELISA plate were washed multiple times with PBST buffer. […] [0249] (6) The wells of the ELISA plate were washed multiple times with PBST buffer. Then, 100 μL of 2× anti-hFc HRP secondary antibody was added, and the plate was incubated at 37° C. for 1 h. [0250] (7) The wells of the ELISA plate were washed multiple times with PBST buffer. After adding 100 μL of TMB chromogenic solution, the reaction was carried out in the dark at room temperature for 30 min. [0251] (8) 100 μL of stop solution (1 mol/L HCl) was added to terminate the reaction. OD450 was measured using a microplate reader, and the readings were recorded.

TfR1 peptide D3-helix1 = target: T2, TfR1 peptide D3-helix1 (human); experiment: as above
T2 construct: Synthetic peptide, captured on a streptavidin-coated plate; also called peptide No. 5
T2 peptide: RLYWDDLKRKLSEKLDSTD
Procedure: as §1

TfR1 peptide D2-loop3-K = target: T3, TfR1 peptide D2-loop3-K (human); experiment: as above
T3 construct: Synthetic peptide, captured on a streptavidin-coated plate; also called peptide No. 14
T3 peptide: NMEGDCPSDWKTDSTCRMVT
Procedure: as §1

[1] = target: T4, TfR1 peptide D3-helix3-loop1 (human); experiment: as above
T4 construct: Synthetic peptide, captured on a streptavidin-coated plate; also called peptide No. 10
T4 peptide: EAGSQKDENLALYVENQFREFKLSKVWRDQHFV
Procedure: as §1

TfR1 peptide D1-helix1 = target: T5, TfR1 peptide D1-helix1 (human); experiment: as above
T5 construct: Synthetic peptide, captured on a streptavidin-coated plate; also called peptide No. 1
T5 peptide: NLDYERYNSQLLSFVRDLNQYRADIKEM
Procedure: as §1

TfR1 peptide D3-loop1 [2] = target: T6, TfR1 peptide D3-loop1 (human); experiment: as above
T6 construct: Synthetic peptide, captured on a streptavidin-coated plate; also called peptide No. 11
T6 peptide: LSKVWRDQHFV
Procedure: as §1

TfR1 peptide D3-helix2 = target: T7, TfR1 peptide D3-helix2 (human); experiment: as above
T7 construct: Synthetic peptide, captured on a streptavidin-coated plate; also called peptide No. 6
T7 peptide: FTSTIKLLNENSYV
Procedure: as §1

TfR1 peptide D3-helix3 = target: T8, TfR1 peptide D3-helix3 (human); experiment: as above
T8 construct: Synthetic peptide, captured on a streptavidin-coated plate; also called peptide No. 7
T8 peptide: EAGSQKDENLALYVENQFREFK
Procedure: as §1

TfR1 peptide D2-loop2-K [3] = target: T9, TfR1 peptide D2-loop2-K (human); experiment: as above
T9 construct: Synthetic peptide, captured on a streptavidin-coated plate; also called peptide No. 21
T9 peptide: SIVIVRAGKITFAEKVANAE
Procedure: as §1

TfR1 peptide D1-helix5 = target: T10, TfR1 peptide D1-helix5 (human); experiment: as above
T10 construct: Synthetic peptide, captured on a streptavidin-coated plate; also called peptide No. 17
T10 peptide: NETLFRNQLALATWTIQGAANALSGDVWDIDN
Procedure: as §1

TfR1 peptide D2-loop1 = target: T11, TfR1 peptide D2-loop1 (human); experiment: as above
T11 construct: Synthetic peptide, captured on a streptavidin-coated plate; also called peptide No. 12
T11 peptide: GTKKDFEDLY
Procedure: as §1

[4] = target: T12, TfR1 peptide D3-helix2-helix3 (human); experiment: as above
T12 construct: Synthetic peptide, captured on a streptavidin-coated plate; also called peptide No. 9
T12 peptide: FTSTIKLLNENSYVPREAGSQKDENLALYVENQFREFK
Procedure: as §1

[5] = target: T13, TfR1 peptide D1-helix2-helix3 (human); experiment: as above
T13 construct: Synthetic peptide, captured on a streptavidin-coated plate; also called peptide No. 4
T13 peptide: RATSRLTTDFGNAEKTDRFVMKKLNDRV
Procedure: as §1

[6] = target: T14, TfR1 peptide D3-helix1-helix2 (human); experiment: as above
T14 construct: Synthetic peptide, captured on a streptavidin-coated plate; also called peptide No. 8
T14 peptide: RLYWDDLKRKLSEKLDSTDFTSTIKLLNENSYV
Procedure: as §1

TfR1 peptide D3-loop1 [7] = target: T6, TfR1 peptide D3-loop1; experiment: peptide ELISA on streptavidin plate, 2 µg/mL 2H7-hFc, anti-hFc HRP
Procedure: as §1

[8] = target: T15, TfR1 peptide D1-helix1-helix2 (human); experiment: as above
T15 construct: Synthetic peptide, captured on a streptavidin-coated plate; also called peptide No. 18
T15 peptide: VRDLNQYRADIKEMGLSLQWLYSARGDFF
Procedure: as §1

TfR1 peptide D2-loop2-K [9] = target: T9, TfR1 peptide D2-loop2-K; experiment: as above
Procedure: as §1

TfR1 peptide D1-helix3 = target: T16, TfR1 peptide D1-helix3 (human); experiment: as above
T16 construct: Synthetic peptide, captured on a streptavidin-coated plate; also called peptide No. 16
T16 peptide: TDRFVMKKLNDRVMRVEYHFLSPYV
Procedure: as §1

B1: anti-humanized TfR1 single-domain antibody-Fc fusion antibody 2H7-hFC1 (Fc fusion)
chain (part 1 of 2): ESGGGLVQPGESLRLSCVASGSIWSIYTMGWYRQAPGKQRDFVASITGDSTRTLESVKDRFIISRDNTKNTLYLQMNSLKPEDTAVYYCQAITSLGEYWGQGTQVTVSS
notes: Expressed in 293F cells, Protein A purified; labelled with pHrodo iFL Green in the internalization assays; also called VHH-hFc; not shown: human IgG1 Fc: hinge, CH2 and CH3 regions, from vector RJK-V4-hFC1; limits and junction (multiple cloning site) not stat
- binding result (TfR1 peptide D2-loop1-K): no binding (tested: P/N 1.2, limit 2)
- binding result (TfR1 peptide D3-helix1): no binding (tested: P/N 1.1, limit 2)
- binding result (TfR1 peptide D2-loop3-K): no binding (tested: P/N 1.5, limit 2)
- binding result [1]: no binding (tested: P/N 1.7, limit 2)
- binding result (TfR1 peptide D1-helix1): no binding (tested: P/N 1.2, limit 2)
- binding result (TfR1 peptide D3-loop1 [2]): no binding (tested: P/N 1.4, limit 2)
- binding result (TfR1 peptide D3-helix2): no binding (tested: P/N 1.3, limit 2)
- binding result (TfR1 peptide D3-helix3): no binding (tested: P/N 1.1, limit 2)
- binding result (TfR1 peptide D2-loop2-K [3]): no binding (tested: P/N 1.3, limit 2)
- binding result (TfR1 peptide D1-helix5): no binding (tested: P/N 1.2, limit 2)
- binding result (TfR1 peptide D2-loop1): no binding (tested: P/N 1.4, limit 2)
- binding result [4]: no binding (tested: P/N 1.2, limit 2)
- binding result [5]: no binding (tested: P/N 1.4, limit 2)
- binding result [6]: no binding (tested: P/N 1.1, limit 2)
- OD450 (TfR1 peptide D3-loop1 [7]): 0.17
- OD450 [8]: 0.977
- P/N [8]: 3.5
- OD450 (TfR1 peptide D2-loop2-K [9]): 0.16
- OD450 (TfR1 peptide D1-helix3): 0.974
- P/N (TfR1 peptide D1-helix3): 5
